We go through three molecules from PMC4490372, “Architecture of TFIIIC and its role in RNA polymerase III pre-initiation complex assembly” (Nature Communications, 2015).

In experiment [1] the target is T1, Bdp1, full-length, recombinant (UniProt P46678 1-594).
T1 construct: Bdp1, subunit of TFIIIB, full-length; also called untagged Bdp1; source: E. coli BL21 Star (DE3) pRARE, purified (Ni-NTA, TEV cleavage, S200 SEC); not shown: His6, N-terminal, cleaved
T1 sequence (looked up): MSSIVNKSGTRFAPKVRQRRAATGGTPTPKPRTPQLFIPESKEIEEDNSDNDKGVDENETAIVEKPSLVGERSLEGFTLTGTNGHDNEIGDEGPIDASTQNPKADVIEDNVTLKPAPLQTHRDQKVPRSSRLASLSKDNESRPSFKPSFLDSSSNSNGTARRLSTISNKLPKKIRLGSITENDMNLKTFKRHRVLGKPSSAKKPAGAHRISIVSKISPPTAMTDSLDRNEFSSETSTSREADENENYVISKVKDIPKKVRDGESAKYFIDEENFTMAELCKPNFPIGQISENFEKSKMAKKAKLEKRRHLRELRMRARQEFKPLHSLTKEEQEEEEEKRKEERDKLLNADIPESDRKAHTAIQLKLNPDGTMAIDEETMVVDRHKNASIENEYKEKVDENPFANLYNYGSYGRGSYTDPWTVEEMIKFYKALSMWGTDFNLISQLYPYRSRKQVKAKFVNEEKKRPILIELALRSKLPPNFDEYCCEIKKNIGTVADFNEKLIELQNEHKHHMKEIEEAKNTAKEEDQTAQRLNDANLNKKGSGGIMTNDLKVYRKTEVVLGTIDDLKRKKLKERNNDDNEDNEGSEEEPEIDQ
Kind of experiment: pull-down; 15 μg GST-tagged τ131 on Glutathione Sepharose 4B; 300 nM τ138 or Bdp1, or 1 μM Brf1–TBP; 50 mM Tris pH 7.5, 150 mM NaCl, 2 mM DTT, 0.1% Tween20; 4 °C, 4 h. The conditions noted are these: both partners purified.

The target of experiment [2] is T2, τ91 (Tfc6), τB subunit of endogenous S. cerevisiae TFIIIC (S. cerevisiae, UniProt Q06339 1-672).
T2 construct: τ91 (Tfc6), subunit of S. cerevisiae TFIIIC, endogenous subunit in the purified complex; source: endogenous, purified from S. cerevisiae strain SC2342 as part of TFIIIC (TAP tag on τ60)
T2 sequence (looked up): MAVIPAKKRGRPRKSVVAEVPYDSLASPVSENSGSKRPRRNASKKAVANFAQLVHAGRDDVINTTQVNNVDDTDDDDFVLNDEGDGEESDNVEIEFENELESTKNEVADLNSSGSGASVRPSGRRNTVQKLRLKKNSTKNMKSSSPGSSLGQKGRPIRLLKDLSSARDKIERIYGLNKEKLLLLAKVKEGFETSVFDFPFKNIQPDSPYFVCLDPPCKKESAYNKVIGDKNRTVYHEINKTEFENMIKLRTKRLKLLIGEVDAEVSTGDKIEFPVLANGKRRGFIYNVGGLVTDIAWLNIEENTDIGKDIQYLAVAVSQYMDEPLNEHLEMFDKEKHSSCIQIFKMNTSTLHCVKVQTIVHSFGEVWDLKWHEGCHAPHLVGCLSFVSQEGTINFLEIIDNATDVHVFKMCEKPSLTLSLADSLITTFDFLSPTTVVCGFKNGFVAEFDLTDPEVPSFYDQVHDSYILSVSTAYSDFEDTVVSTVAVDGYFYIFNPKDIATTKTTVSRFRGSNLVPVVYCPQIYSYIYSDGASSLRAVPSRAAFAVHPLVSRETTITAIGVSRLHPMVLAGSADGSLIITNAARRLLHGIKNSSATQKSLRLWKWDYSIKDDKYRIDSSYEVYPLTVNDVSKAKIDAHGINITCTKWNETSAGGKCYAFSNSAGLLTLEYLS
Kind of experiment: SEC; endogenous TFIIIC purified from yeast by the TAP tag on τ60 (heparin, IgG Sepharose, TEV, MonoQ), then Superose 6 10/300 in 25 mM HEPES pH 7.5, 150 mM NaCl, 1 mM DTT; SDS-PAGE of an elution peak fraction. The settings on record: partners not purified. For orientation: In gel filtration, larger molecules generally elute earlier.

B1: GST-tagged τ131 (123–566), wild type (domain or fragment, S. cerevisiae, UniProt P33339 123-566, looked up)
chain: VLDPEVAQLLSQANEAFVRNDLQVAERLFNEVIKKDARNFAAYETLGDIYQLQGRLNDCCNSWFLAAHLNASDWEFWKIVAILSADLDHVRQAIYCFSRVISLNPMEWESIYRRSMLYKKTGQLARALDGFQRLYMYNPYDANILRELAILYVDYDRIEDSIELYMKVFNANVERREAILAALENALDSSDEESAAEGEDADEKEPLEQDEDRQMFPDINWKKIDAKYKCIPFDWSSLNILAELFLKLAVSEVDGIKTIKKCARWIQRRESQTFWDHVPDDSEFDNRRFKNSTFDSLLAAEKEKSYNIPIDIRVRLGLLRLNTDNLVEALNHFQCLYDETFSDVADLYFEAATALTRAEKYKEAIDFFTPLLSLEEWRTTDVFKPLARCYKEIESYETAKEFYELAIKSEPDDLDIRVSLAEVYYRLNDPETFKHMLVDVVEMR
notes: also called GST-τ131; source: E. coli BL21 (DE3) Gold, purified (GST column, S200 SEC)
On to B1, for which the binding result in experiment [1] is “binds”.

B2: τ60 (Tfc8), τB subunit of endogenous S. cerevisiae TFIIIC, fused with a C-terminal TAP-tag (natural protein, UniProt Q12308 1-588, looked up)
chain: MKLLKDLLVDRKEFEDWKNNLTWARDGTLYLTTFPDISIGQPKYAKDINCNSKNLFHVKEFPLEFENKLDFELAQQNGLLNSQPVCYPRVCKPSPIDDWMAVLSNNGNVSVFKDNKMLTNLDSKGNLSSRTYHCFEWNPIESSIVVGNEDGELQFFSIRKNSENTPEFYFESSIRLSDAGSKDWVTHIVWYEDVLVAALSNNSVFSMTVSASSHQPVSRMIQNASRRKITDLKIVDYKVVLTCPGYVHKIDLKNYSISSLKTGSLENFHIIPLNHEKESTILLMSNKTSYKVLLEDELHVTADNIIAPYLEKKFKKWSTIWNEFNNYETTLVIHGISLSPDGYSIAIVYDMERVAFKYKIASEQSFNIMFAPLYHTWTISERAVGLAWYQTYQIYNQSLPKLPENFSMNKKLLNGNYPISLDFQSYLNALMKSEEMRIIMFLNMTIDKPSILSFLEALYEYAINKKSELTNSFDLACVLSIAAILKREAPIYNGTLLMKNSFLEETFNLESFTADPETVTSTTNNTWKRCGVTLLPILTTHVKICPVSKQRVIDIKRDDLNDYGWFTRGLLERFNEISVYCGTTLEVM
notes: τ60 (Tfc8), subunit of S. cerevisiae TFIIIC, endogenous TFC8 fused with a C-terminal TAP-tag; The complex was captured on IgG Sepharose by the TAP tag and released by TEV protease before MonoQ, Superose 6 and cross-linking; not shown: TAP, C-terminal, kept
Regarding B2, the binding result in experiment [2] is listed as “binds”.

B3: GST-tagged τ131 (1–580), wild type (domain or fragment, S. cerevisiae, UniProt P33339 1-580, looked up)
chain: MAAGKLKKEQQNQSAERESADTGKVNDEDEEHLYGNIDDYKHLIQDEEYDDEDVPHDLQLSEDEYNSERDSSLLAEFSDYGEISEDDEEDFMNAIREASNFKVKKKKKNDKGKSYGRQRKERVLDPEVAQLLSQANEAFVRNDLQVAERLFNEVIKKDARNFAAYETLGDIYQLQGRLNDCCNSWFLAAHLNASDWEFWKIVAILSADLDHVRQAIYCFSRVISLNPMEWESIYRRSMLYKKTGQLARALDGFQRLYMYNPYDANILRELAILYVDYDRIEDSIELYMKVFNANVERREAILAALENALDSSDEESAAEGEDADEKEPLEQDEDRQMFPDINWKKIDAKYKCIPFDWSSLNILAELFLKLAVSEVDGIKTIKKCARWIQRRESQTFWDHVPDDSEFDNRRFKNSTFDSLLAAEKEKSYNIPIDIRVRLGLLRLNTDNLVEALNHFQCLYDETFSDVADLYFEAATALTRAEKYKEAIDFFTPLLSLEEWRTTDVFKPLARCYKEIESYETAKEFYELAIKSEPDDLDIRVSLAEVYYRLNDPETFKHMLVDVVEMRKHQVDETLHRISNE
notes: τ131 (Tfc4) of S. cerevisiae TFIIIC, residues 1-580 (extended N terminus and TPR array); also called GST-τ131 (1–580); longer τ131 protein; source: E. coli BL21 (DE3) Gold, purified (GST column, S200 SEC)
As for B3, the binding result in experiment [1] was “binds”.
